Laboratory results reported in patent US20120178113A1.

Target: T1, full-length human recombinant IGFBP-4 (insulin-like growth factor binding protein-4) expressed in NS0 cell line, P22692
T1 chain: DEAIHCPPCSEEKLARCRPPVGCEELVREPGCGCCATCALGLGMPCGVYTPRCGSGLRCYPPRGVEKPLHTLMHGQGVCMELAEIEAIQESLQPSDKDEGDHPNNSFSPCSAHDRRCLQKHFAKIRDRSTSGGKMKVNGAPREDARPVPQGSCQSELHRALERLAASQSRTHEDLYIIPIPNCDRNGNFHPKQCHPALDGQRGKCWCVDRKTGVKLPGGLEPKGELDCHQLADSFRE

B1: atherosclerotic PAPP-A (pregnancy-associated plasma protein-A purified from human atherosclerotic coronary arteries) (protein)
chain: EARGATEEPSPPSRALYFSGRGEQLRLRADLELPRDAFTLQVWLRAEGGQRSPAVITGLYDKCSYISRDRGWVVGIHTISDQDNKDPRYFFSLKTDRARQVTTINAHRSYLPGQWVYLAATYDGQFMKLYVNGAQVATSGEQVGGIFSPLTQKCKVLMLGGSALNHNYRGYIEHFSLWKVARTQREILSDMETHGAHTALPQLLLQENWDNVKHAWSPMKDGSSPKVEFSNAHGFLLDTSLEPPLCGQTLCDNTEVIASYNQLSSFRQPKVVRYRVVNLYEDDHKNPTVTREQVDFQHHQLAEAFKQYNISWELDVLEVSNSSLRRRLILANCDISKIGDENCDPECNHTLTGHDGGDCRHLRHPAFVKKQHNGVCDMDCNYERFNFDGGECCDPEITNVTQTCFDPDSPHRAYLDVNELKNILKLDGSTHLNIFFAKSSEEELAGVATWPWDKEALMHLGGIVLNPSFYGMPGHTHTMIHEIGHSLGLYHVFRGISEIQSCSDPCMETEPSFETGDLCNDTNPAPKHKSCGDPGPGNDTCGFHSFFNTPYNNFMSYADDDCTDSFTPNQVARMHCYLDLVYQGWQPSRKPAPVALAPQVLGHTTDSVTLEWFPPIDGHFFERELGSACHLCLEGRILVQYASNASSPMPCSPSGHWSPREAEGHPDVEQPCKSSVRTWSPNSAVNPHTVPPACPEPQGCYLELEFLYPLVPESLTIWVTFVSTDWDSSGAVNDIKLLAVSGKNISLGPQNVFCDVPLTIRLWDVGEEVYGIQIYTLDEHLEIDAAMLTSTADTPLCLQCKPLKYKVVRDPPLQMDVASILHLNRKFVDMDLNLGSVYQYWVITISGTEESEPSPAVTYIHGSGYCGDGIIQKDQGEQCDDMNKINGDGCSLFCRQEVSFNCIDEPSRCYFHDGDGVCEEFEQKTSIKDCGVYTPQGFLDQWASNASVSHQDQQCPGWVIIGQPAASQVCRTKVIDLSEGISQHAWYPCTISYPYSQLAQTTFWLRAYFSQPMVAAAVIVHLVTDGTYYGDQKQETISVQLLDTKDQSHDLGLHVLSCRNNPLIIPVVHDLSQPFYHSQAVRVSFSSPLVAISGVALRSFDNFDPVTLSSCQRGETYSPAEQSCVHFACEKTDCPELAVENASLNCSSSDRYHGAQCTVSCRTGYVLQIRRDDELIKSQTGPSVTVTCTEGKWNKQVACEPVDCSIPDHHQVYAASFSCPEGTTFGSQCSFQCRHPAQLKGNNSLLTCMEDGLWSFPEALCELMCLAPPPVPNADLQTARCRENKHKVGSFCKYKCKPGYHVPGSSRKSKKRAFKTQCTQDGSWQEGACVPVTCDPPPPKFHGLYQCTNGFQFNSECRIKCEDSDASQGLGSNVIHCRKDGTWNGSFHVCQEMQGQCSVPNELNSNLKLQCPDGYAIGSECATSCLDHNSESIILPMNVTVRDIPHWLNPTRVERVVCTAGLKWYPHPALIHCVKGCEPFMGDNYCDAINNRAFCNYDGGDCCTSTVKTKKVTPFPMSCDLQGDCACRDPQAQEHSRKDLRGYSHG
B1 was tested, and the “PAPP-A-dependent cleavage of IGFBP-4, determined by Western blotting” value was “Atherosclerotic PAPP-A was shown to cleave IGFBP-4 with the same efficiency as recombinant PAPP-A”.

B2: human recombinant PAPP-A (HyTest) (protein)
chain: EARGATEEPSPPSRALYFSGRGEQLRLRADLELPRDAFTLQVWLRAEGGQRSPAVITGLYDKCSYISRDRGWVVGIHTISDQDNKDPRYFFSLKTDRARQVTTINAHRSYLPGQWVYLAATYDGQFMKLYVNGAQVATSGEQVGGIFSPLTQKCKVLMLGGSALNHNYRGYIEHFSLWKVARTQREILSDMETHGAHTALPQLLLQENWDNVKHAWSPMKDGSSPKVEFSNAHGFLLDTSLEPPLCGQTLCDNTEVIASYNQLSSFRQPKVVRYRVVNLYEDDHKNPTVTREQVDFQHHQLAEAFKQYNISWELDVLEVSNSSLRRRLILANCDISKIGDENCDPECNHTLTGHDGGDCRHLRHPAFVKKQHNGVCDMDCNYERFNFDGGECCDPEITNVTQTCFDPDSPHRAYLDVNELKNILKLDGSTHLNIFFAKSSEEELAGVATWPWDKEALMHLGGIVLNPSFYGMPGHTHTMIHEIGHSLGLYHVFRGISEIQSCSDPCMETEPSFETGDLCNDTNPAPKHKSCGDPGPGNDTCGFHSFFNTPYNNFMSYADDDCTDSFTPNQVARMHCYLDLVYQGWQPSRKPAPVALAPQVLGHTTDSVTLEWFPPIDGHFFERELGSACHLCLEGRILVQYASNASSPMPCSPSGHWSPREAEGHPDVEQPCKSSVRTWSPNSAVNPHTVPPACPEPQGCYLELEFLYPLVPESLTIWVTFVSTDWDSSGAVNDIKLLAVSGKNISLGPQNVFCDVPLTIRLWDVGEEVYGIQIYTLDEHLEIDAAMLTSTADTPLCLQCKPLKYKVVRDPPLQMDVASILHLNRKFVDMDLNLGSVYQYWVITISGTEESEPSPAVTYIHGSGYCGDGIIQKDQGEQCDDMNKINGDGCSLFCRQEVSFNCIDEPSRCYFHDGDGVCEEFEQKTSIKDCGVYTPQGFLDQWASNASVSHQDQQCPGWVIIGQPAASQVCRTKVIDLSEGISQHAWYPCTISYPYSQLAQTTFWLRAYFSQPMVAAAVIVHLVTDGTYYGDQKQETISVQLLDTKDQSHDLGLHVLSCRNNPLIIPVVHDLSQPFYHSQAVRVSFSSPLVAISGVALRSFDNFDPVTLSSCQRGETYSPAEQSCVHFACEKTDCPELAVENASLNCSSSDRYHGAQCTVSCRTGYVLQIRRDDELIKSQTGPSVTVTCTEGKWNKQVACEPVDCSIPDHHQVYAASFSCPEGTTFGSQCSFQCRHPAQLKGNNSLLTCMEDGLWSFPEALCELMCLAPPPVPNADLQTARCRENKHKVGSFCKYKCKPGYHVPGSSRKSKKRAFKTQCTQDGSWQEGACVPVTCDPPPPKFHGLYQCTNGFQFNSECRIKCEDSDASQGLGSNVIHCRKDGTWNGSFHVCQEMQGQCSVPNELNSNLKLQCPDGYAIGSECATSCLDHNSESIILPMNVTVRDIPHWLNPTRVERVVCTAGLKWYPHPALIHCVKGCEPFMGDNYCDAINNRAFCNYDGGDCCTSTVKTKKVTPFPMSCDLQGDCACRDPQAQEHSRKDLRGYSHG
B2 was tested, and the “PAPP-A-dependent cleavage of IGFBP-4, determined by Western blotting” value was “Atherosclerotic PAPP-A was shown to cleave IGFBP-4 with the same efficiency as recombinant PAPP-A”.
